In article PMC5777259:

What was measured:
[1] = target: filamentous β-actin (human) (UniProt P60709); experiment: co-sedimentation; 10 μM β-actin preincubated with 0–10 μM Tpm for 30 min at room temperature; 20 mM MOPS pH 7.0, 5 mM MgCl2, 100 mM KCl; SDS-PAGE densitometry of supernatant and pellet; Hill fit, apparent constants (K50%)
[2] = target: acto-NM-2B (filamentous β-actin with NM-2B–HMM) (human) (UniProt P60709); experiment: co-sedimentation; 6:1 acto–Tpm mixture (6 μM β-actin, 1 μM Tpm) with 0–16 μM NM-2B–HMM, 30 min; 20 mM MOPS pH 7.0, 5 mM MgCl2, 50 mM KCl; pelleted 20 min at 100,000 × g; Hill fit
[3] = target: Tpm3.1-enveloped filamentous β-actin (human) (UniProt P60709); experiment: stopped-flow light scattering; 4 μM NM-2B0 mixed with 0.5–4 μM bare actin or actin-Tpm complex, light scattering at 405 nm; 20 °C; 20 mM MOPS pH 7.0, 100 mM KCl, 5 mM MgCl2; no nucleotide; k+A from the slope, k−A from the y intercept, KA = k−A/k+A
[4] = target: Tpm1.12-enveloped filamentous β-actin (human | rat) (UniProt P60709); experiment: as above

Kd [1] | Kd [2] | Kd [3] | Kd [4] | Substance
100 nM | < 100 nM | – | – | Tpm1.8cy (b.–.b.d) (natural protein)
– | – | 30 nM | 80 nM | single-headed construct NM-2B0 (motor domain of human NM-2B0, residues 1–782, two Dictyostelium discoideum α-actinin repeats, C-terminal octahistidine tag) (from UniProt P35580 1-782) (domain or fragment)
